Key:
[1] = target: the molecule itself; assay: gel filtration (self-association)
[2] = target: the molecule itself; assay: gel electrophoresis of non-heated samples and gel filtration on Sephadex-100 (homodimer)
Experimental: Under these conditions these FPs migrated as yellow fluorescent band at about 50 kDa. […] Purified protein samples (˜1 mg/ml) were loaded onto a Sephadex-100 column (0.7×60 cm) and eluted with a solution of 50 mM phosphate buffer (pH 7.0) and 100 mM NaCl. EGFP, HcRed1 and DsRed2 (Clontech) were used as monomer, dimer and tetramer standards, respectively.

| Protein | binding result [1] | binding result [2] |
| --- | --- | --- |
| S3-2 red fluorescent mutant of hm2CP (other, No tag is stated for the gel-filtration sample; also called S3-2 red fluorescent protein) MEGGPALFQSDMTFKIFIDGVVNGQKFTIVADGSSKFPHGDFNVHAVCETGKLPMSWKPICHLIQYGEPFFARYPNGISHFAQECFPEGLSIDRTVRFENDGTMTSHHTYELDGTCVVSRITVNCDGFQPDGPIMRDQLVDILPNETHMFPHGPNAVRQLAFIGFTTADGGLMMSHFDSKMTFNGSRAIKIPGPHFVTTITKQMKDTSDKRDHVCQREVTYAHSVPRITSAI | no binding |  |
| phiYFP, yellow fluorescent protein from Phialidium sp. (wild type) (other, Recombinant protein from the whole coding region, expressed in E. coli and purified on TALON; Found to be a homodimer by gel electrophoresis of non-heated samples and by gel filtration; not shown: N-terminal six-histidine tag from the pQE30 vector) MSSGALLFHGKIPYVVEMEGNVDGHTFSIRGKGYGDASVGKVDAQFICTTGDVPVPWSTLVTTLTYGAQCFAKYGPELKDFYKSCMPEGYVQERTITFEGDGVFKTRAEVTFENGSVYNRVKLNGQGFKKDGHVLGKNLEFNFTPHCLYIWGDQANHGLKSAFKIMHEITGSKEDFIVADHTQMNTPIGGGPVHVPEYHHITYHVTLSKDVTDHRDNMSLVETVRAVDCRKTYL |  | binds |
| phiYFP-M0 (phiYFP mutant with S2P, V103N, M166R, E174G, Y198N, I201M, T202S, T206K, V221K) (other, No tag is stated for the tested sample) MPSGALLFHGKIPYVVEMEGNVDGHTFSIRGKGYGDASVGKVDAQFICTTGDVPVPWSTLVTTLTYGAQCFAKYGPELKDFYKSCMPEGYVQERTITFEGDGNFKTRAEVTFENGSVYNRVKLNGQGFKKDGHVLGKNLEFNFTPHCLYIWGDQANHGLKSAFKIRHEITGSKGDFIVADHTQMNTPIGGGPVHVPENHHMSYHVKLSKDVTDHRDNMSLKETVRAVDCRKTYL | no binding |  |
| phiYFP-Y1 (phiYFP mutant with S2P, E174G, I201M) (other, Found to be a homodimer) MPSGALLFHGKIPYVVEMEGNVDGHTFSIRGKGYGDASVGKVDAQFICTTGDVPVPWSTLVTTLTYGAQCFAKYGPELKDFYKSCMPEGYVQERTITFEGDGVFKTRAEVTFENGSVYNRVKLNGQGFKKDGHVLGKNLEFNFTPHCLYIWGDQANHGLKSAFKIMHEITGSKGDFIVADHTQMNTPIGGGPVHVPEYHHMTYHVTLSKDVTDHRDNMSLVETVRAVDCRKTYL |  | binds |
| phiYFP-M1 (phiYFP mutant with E88D, V103N, M166C, E174G, I201M, T202S, T206K, V221K) (other, No tag is stated for the gel-filtration sample) MSSGALLFHGKIPYVVEMEGNVDGHTFSIRGKGYGDASVGKVDAQFICTTGDVPVPWSTLVTTLTYGAQCFAKYGPELKDFYKSCMPDGYVQERTITFEGDGNFKTRAEVTFENGSVYNRVKLNGQGFKKDGHVLGKNLEFNFTPHCLYIWGDQANHGLKSAFKICHEITGSKGDFIVADHTQMNTPIGGGPVHVPEYHHMSYHVKLSKDVTDHRDNMSLKETVRAVDCRKTYL | no binding |  |

Source: patent publication US20070298412A1 (ZAKRYTOE AKTSIONERNOE OBSCHESTVO EVROGEN, published 2007)
